B1: REC_(hHK3) N1107A/N1110A, double mutant of the REC-1 domain of hHK3 from Chaetomium thermophilum (domain or fragment)
chain: ENRATPSLADNTRSFEILLAEDAAVAQRLAVKILEKYHHVVTVVGNGEEAVEAVKRKKFDVILMDVQMPVMGGFEATAKIREYEASLPTPQRTPIIALTAHAMMGDREKCLEAQMDEYLSKPLQQANLIQTILKCA
B2: Histag-Ct_HPt (residues 9-175), labelled with Red-Tris NTA dye (natural protein)
chain: ADRAQDHNNNNTPRNSNYVVEEEEVSEEEEEAIMMPDFGDHVDTSIFGQILEMDEGDDHDFSAPLVLNFFEQAEETFQKMETALNNKDLPELSKLGHFLKGSSATLGFTKIRDSCQLIQQYGHGLNVDGSSEPDEGVCLKKIAEALASARVDTVALHKMMREFFEY
modifications: Red-Tris NTA Dye bound to the Histag

How the values were obtained:
Test in all cases: MST; Histag-Ct_HPt labelled with Red-Tris NTA dye held constant; REC-1 domain in sixteen two-fold dilutions from 1 mM (0.32 mM for REC_hHK6); PBS + 0.05% Tween-20; medium MST power; hyperbolic fit, 1:1 model; mean of two titrations
Details in all cases: both partners purified
[1] = molecular target: B2
[2] = molecular target: T1, REC_(hHK6), REC-1 domain of hybrid histidine kinase hHK6 (group VI, ortholog of Sln1) from Chaetomium … (Chaetomium thermophilum)
T1 construct: REC-1 (receiver) domain of hHK6, CTHT_0050920, group VI hybrid histidine kinase of C. thermophilum (protein ends at residue 1290); also called REC_(hHK6)-BeF; not shown: His6, N-terminal, cleaved

[3] = molecular target: T2, REC_(hHK3), REC-1 domain of hybrid histidine kinase hHK3 (group III, ortholog of Nik1) from Chaetomium … (Chaetomium thermophilum)
T2 construct: REC-1 (receiver) domain of hHK3, CTHT_0053860, group III hybrid histidine kinase of C. thermophilum; not shown: His6, N-terminal, cleaved

Binder | Kd [1] | Kd [2] | Kd [3]
B1 | 46 ± 0.07 µM |  | 
B2 |  | 13 ± 0.04 µM | 28 ± 0.1 µM

Reference: publication PMC11224324, “Structural and functional insights underlying recognition of histidine phosphotransfer protein in fungal phosphorelay systems” (Communications Biology, 2024)
